{
  "source": "paper PMC5015840",
  "binders": {"B1": {"name": "RDV P2 in RDV-infected rice plants (natural protein)", "chain": "MAYPNDVRNVWDVYNVFRDVPNREHLIRDIRNGLVTVRNLTNMLTNMERDDQLIIAQLSNMMKSLSIGVEKAQNELSKLKTTDADRAAVLAAYQTSVLNIERNTMLLTGYFKQLVLDLTGYVGASVYPILPFMITGDQSMMVDSIKINMKNVFDDKHEQEIVLPIHPACFVSTITEDTSSVVYADGDELYSVHVRHATMTMYVNVLGETVETRQLSMIGDSIVPDDFAPSLLILRFSQDSVGEVFYLSHDNMKKFLGYGLEYTDKYSIFDVTRRVSTTRNKIPDGFCSVDGVPYLDGWFIYQPSGISADSNICAIYNSYVLDTLRYITECEVDTLRSVYDQTSSTAFSKTDVLTSSLLTMQSNISALSAATPQLANDVITFDSTDLLSLGTVLTVSNEFTADDTILSTSLAGHCQVDYSEGSPQDKSMSISVSCDSSQLASSTVHSYSADILGHGLKGDRNMNLMINVPGLMNPQKVTVDYVYSDGYKLNFASVVAPGAPFWINATLQLSVSPSAHNMLSKLTPLDNDACPGLKAQANTPVLVSMTINLDDATPALGGEVIQNCVFKIHHGDDVYSFVTDFDVISYTSTSGTNCLKLISSVDITSQLPSDMVIYVMNGSPDAAFISGDSVNMSSVDWHQSTSQTVGNYVYTTMKAYWNVTSYDVEARPYTTYVPGKVNFTAVEHADVFVDDYNTGVNSYVIVNSRIYYKGTPLYIEVPSGSFIKVSYFTSPLKNPTVDTYNAEISRNSAYLIKANASLDSVAAMLNNISNRIDAMERLMEPTRAQQIAGVVSSIGGVISLGMPLLGAIVVTIGTIISIADPDKQGIDYHSVANAFMSWCQYAAVCRYEYGLLKRGDEKLDVLSFMPKRVVSDFKNKPDVISLPELGESVLRGSSTDYLDTGINIIYNDMQLLGQGKLSDWLNKTVSKVENNAANFFERNLDKSLANKEVLPMHARVEITQTEKIGDVYRTTILYTGINEGSYLGGDVFASRLGDKNILRMNGFESGPGRFKAIVESTTEVGNFRVVDWTVSGMSRYEIYAAAGEVYPSKDPSHADVQLLYESIVRDLTTRDGSFVLKHHDVLLLPGQLDAFEELIIKNASNYQYAFIGSNCSKLCA"}},
  "target": "MBP-OsIAA10 (rice)",
  "data": [
    {"binder": "B1", "values": [
      {"measurement": "half-life of MBP-OsIAA10 in the cell-free degradation assay, RDV-infected against mock-inoculated rice extracts", "result": "> 2", "unit": "fold"}
    ]}
  ]
}
